Reference: patent US20250304651A1 (ACADEMISCH ZIEKENHUIS LEIDEN H O D N LEIDS UNIVERSITAIR …, published 2025)
Blank lines part the entries; values can stand above or below the binder they belong to.

What was measured:
[1] = biological target: T1, HLA-A*03:01 (monomer for refolding) (human); assay: monomer refolding
T1 construct: Monomer production is described in detail only for HLA-A*02:01

[2] = biological target: T2, HLA-A*11:01 (monomer for refolding) (human); assay: monomer refolding
T2 construct: Monomer production is described in detail only for HLA-A*02:01

[3] = biological target: T3, ΔNPM1 (mutant NPM1; dNPM1) peptide on HLA-A*03:01 (human); assay: cytokine release
T3 peptide: AVEEVSLRK

[4] = biological target: T4, ΔNPM1 (mutant NPM1; dNPM1) peptide on HLA-A*11:01 (human); assay: multimer staining
T4 peptide: AVEEVSLRK

[5] = biological target: T5, HLA-A*01:01 (monomer for refolding) (human); assay: monomer folding for tetramer production
T5 construct: Monomer production is described in detail only for HLA-A*02:01

[6] = biological target: T4, ΔNPM1 (mutant NPM1; dNPM1) peptide on …; assay: cytokine release
[7] = biological target: T6, ΔNPM1 (mutant NPM1; dNPM1) peptide on HLA-A*03:01 (human); assay: multimer staining
T6 peptide: CLAVEEVSLRK

[8] = biological target: T3, ΔNPM1 (mutant NPM1; dNPM1) peptide on …; assay: multimer staining
[9] = biological target: HLA-A*02:01 (recombinant heavy chain with human β2-microglobulin, monomer) (human); assay: monomer refolding

Binder: CLAVEEVSLRK (Synthetic peptide) [ΔNPM1 peptide CLAVEEVSLRK]
- binding result [1]: binds
- binding result [2]: binds

B2: ΔNPM1 peptide AVEEVSLRK (peptide)
peptide: AVEEVSLRK
notes: Eluted natural ligand in the ligandome work
- binding result [1]: binds
- binding result [2]: binds
- binding result [5]: binds

Binder: CLAVEEVSL (Synthetic peptide) [ΔNPM1 peptide CLAVEEVSL]
- binding result [9]: binds

The next lines start with the values.

- binding result [3]: no recognition
- binding result [4]: recognises
B1: dNPM1-A*11:01 TCR (clone 6F11) (TCR, V domains shown)
Valpha: AQSVTQLDSQVPVFEEAPVELRCNYSSSVSVYLFWYVQYPNQGLQLLLKYLSGSTLVKGINGFEAEFNKSQTSFHLRKPSVHISDTAEYFCAVSPAGNQFYFGTGTSLTVIP
Vbeta: GAGVSQSPRYKVTKRGQDVALRCDPISGHVSLYWYRQALGQGPEFLTYFNYEAQQDKSGLPNDRFSAERPEGSISTLTIQRTEQRDSAMYRCASSLGSNQPQHFGDGTRLSIL

- binding result [6]: no recognition
- binding result [7]: no recognition
- binding result [8]: recognises
B3: dNPM1-A*03:01 TCR (clone 31.3.F1) (TCR, V domains shown)
Valpha: QKEVEQNSGPLSVPEGAIASLNCTYSDRGSQSFFWYRQYSGKSPELIMSIYSNGDKEDGRFTAQLNKASQYVSLLIRDSQPSDSATYLCALSGGGQNFVFGPGTRLSVLP
Vbeta: EAGVTQFPSHSVIEKGQTVTLRCDPISGHDNLYWYRRVMGKEIKFLLHFVKESKQDESGMPNNRFLAERTGGTYSTLKVQPAELEDSGVYFCASSQGSGFRHFGDGTRLSIL

- binding result [3]: no recognition
- binding result [4]: recognises
B4: dNPM1-A*11:01 TCR (clone 26.2.D6) (TCR, V domains shown)
Valpha: GEDVEQSLFLSVREGDSSVINCTYTDSSSTYLYWYKQEPGAGLQLLTYIFSNMDMKQDQRLTVLLNKKDKHLSLRIADTQTGDSAIYFCAESKGQNFVFGPGTRLSVLP
Vbeta: DGGITQSPKYLFRKEGQNVTLSCEQNLNHDAMYWYRQDPGQGLRLIYYSHIVNDFQKGDIAEGYSVSREKKESFPLTVTSAQKNPTAFYLCASTTWGTGGHEQYFGPGTRLTVT
